The supplement of paper PMC9112550, “Optimization of the antimicrobial peptide Bac7 by deep mutational scanning” (BMC Biology, 2022)

tested on: Escherichia coli TOP10; test: shrunken log2 fold change of peptide-encoding DNA abundance (4.5 h post-induction vs induction); higher = less antimicrobial activity (less host growth inhibition); settings: time post-induction: 4.5 h; library: site-saturation at positions 5, 18, 19, 20
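Further: peptides expressed intracellularly from a pBAD plasmid library in pooled LB shake-flask culture, induced with 0.3% L-arabinose, DNA abundance read by NGS, three biological replicates, DESeq2 with apeglm shrinkage.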

Sequence | shrunken log2 fold change
RRIRPRPPRLPRPRPRPHDVPRP | -0.242
RRIRFRPPRLPRPRPRPEIRPRP | 0.0106
RRIRCRPPRLPRPRPRPFQSPRP | -0.0129
RRIRIRPPRLPRPRPRPLLVPRP | -0.565
RRIRLRPPRLPRPRPRPKRLPRP | -0.0581
RRIRQRPPRLPRPRPRPTEYPRP | -0.401
RRIRFRPPRLPRPRPRPSEGPRP | 0.0716
RRIRQRPPRLPRPRPRPWMMPRP | 0.0873
RRIRGRPPRLPRPRPRPPWSPRP | 0.76
RRIRCRPPRLPRPRPRPMSTPRP | -0.0888
RRIRIRPPRLPRPRPRPQERPRP | -0.17
RRIRMRPPRLPRPRPRPRHKPRP | 0.402
RRIRFRPPRLPRPRPRPHVDPRP | -0.00919
RRIRPRPPRLPRPRPRPWKGPRP | 0.0625
RRIRKRPPRLPRPRPRPTKKPRP | 0.0465
RRIRERPPRLPRPRPRPYIRPRP | -1.16
RRIRNRPPRLPRPRPRPSRCPRP | 0.283
RRIRDRPPRLPRPRPRPRMKPRP | 0.0166
RRIRWRPPRLPRPRPRPNWRPRP | 0.184
RRIRWRPPRLPRPRPRPAMAPRP | 0.529
RRIRFRPPRLPRPRPRPLHGPRP | -0.216
RRIRARPPRLPRPRPRPPPYPRP | 0.698
RRIRYRPPRLPRPRPRPANTPRP | -0.589
RRIRARPPRLPRPRPRPISLPRP | -0.0678
RRIRGRPPRLPRPRPRPDMIPRP | 0.531

Sequence | shrunken log2 fold change
RRIRARPPRLPRPRPRPPEWPRP | 0.734
RRIRMRPPRLPRPRPRPLLDPRP | 0.409
RRIRSRPPRLPRPRPRPSYAPRP | -0.835
RRIRQRPPRLPRPRPRPCYNPRP | -0.0459
RRIRERPPRLPRPRPRPHCWPRP | -0.0487
RRIRERPPRLPRPRPRPLDFPRP | -0.353
RRIRHRPPRLPRPRPRPFPKPRP | 0.0904
RRIRWRPPRLPRPRPRPNLCPRP | 0.114
RRIRARPPRLPRPRPRPMLQPRP | 0.454
RRIRARPPRLPRPRPRPCPDPRP | -0.161
RRIRNRPPRLPRPRPRPNLWPRP | 0.315
RRIRLRPPRLPRPRPRPHYWPRP | -0.356
RRIRMRPPRLPRPRPRPQWTPRP | 0.0242
RRIRSRPPRLPRPRPRPYAQPRP | -0.535
RRIRDRPPRLPRPRPRPTCLPRP | 0.653
RRIRERPPRLPRPRPRPWMWPRP | 0.0673
RRIRDRPPRLPRPRPRPTIMPRP | -0.347
RRIRCRPPRLPRPRPRPLLPPRP | -0.143
RRIRERPPRLPRPRPRPTECPRP | -0.00173
RRIRVRPPRLPRPRPRPFAMPRP | -0.252
RRIRMRPPRLPRPRPRPKNCPRP | 0.0597
RRIRKRPPRLPRPRPRPCHAPRP | 0.384
RRIRQRPPRLPRPRPRPKEDPRP | -0.0372
RRIRIRPPRLPRPRPRPQNVPRP | -0.173
RRIRQRPPRLPRPRPRPLQAPRP | 0.0365

Sequence | shrunken log2 fold change
RRIRERPPRLPRPRPRPICLPRP | -0.0493
RRIRHRPPRLPRPRPRPLWRPRP | 0.57
RRIRNRPPRLPRPRPRPMWLPRP | 0.0773
RRIRQRPPRLPRPRPRPNQFPRP | 0.0334
RRIRCRPPRLPRPRPRPSASPRP | 0.165
RRIRNRPPRLPRPRPRPHGWPRP | 0.127
RRIRHRPPRLPRPRPRPCQNPRP | -0.0608
RRIRMRPPRLPRPRPRPSYAPRP | -0.0187
RRIRPRPPRLPRPRPRPYSWPRP | -0.046
RRIRSRPPRLPRPRPRPKHCPRP | -0.00217
RRIRFRPPRLPRPRPRPMVHPRP | -0.468
RRIRDRPPRLPRPRPRPFPSPRP | -0.0268
RRIRKRPPRLPRPRPRPRQIPRP | 0.298
RRIRERPPRLPRPRPRPINFPRP | -0.291
RRIRRRPPRLPRPRPRPMFIPRP | -0.275
RRIRNRPPRLPRPRPRPTAIPRP | -0.072
RRIRFRPPRLPRPRPRPLWEPRP | -0.12
RRIRRRPPRLPRPRPRPYKLPRP | -0.669
RRIRMRPPRLPRPRPRPCNEPRP | -0.249
RRIRPRPPRLPRPRPRPQLMPRP | -0.0192
RRIRLRPPRLPRPRPRPHWFPRP | -0.08
RRIRERPPRLPRPRPRPPFLPRP | -0.075
RRIRNRPPRLPRPRPRPYGSPRP | -0.0603
RRIRCRPPRLPRPRPRPAMPPRP | -0.054
RRIRTRPPRLPRPRPRPHAIPRP | 0.103

Sequence | shrunken log2 fold change
RRIRCRPPRLPRPRPRPPVWPRP | 0.129
RRIRFRPPRLPRPRPRPEWFPRP | 0.0431
RRIRMRPPRLPRPRPRPYCFPRP | -0.28
RRIRSRPPRLPRPRPRPMIKPRP | -0.464
RRIRERPPRLPRPRPRPNAIPRP | 0.185
RRIRKRPPRLPRPRPRPNWDPRP | 1.4
RRIRERPPRLPRPRPRPHVIPRP | -0.133
RRIRWRPPRLPRPRPRPEKDPRP | -0.0712
RRIRSRPPRLPRPRPRPIHKPRP | -0.165
RRIRRRPPRLPRPRPRPFPNPRP | 0.558
RRIRQRPPRLPRPRPRPYCLPRP | -0.423
RRIRKRPPRLPRPRPRPYGWPRP | 0.05
RRIRERPPRLPRPRPRPPNNPRP | -0.186
RRIRKRPPRLPRPRPRPKCTPRP | 0.0297
RRIRPRPPRLPRPRPRPCLPPRP | 0.0296
RRIRVRPPRLPRPRPRPHWSPRP | -0.191
RRIRSRPPRLPRPRPRPQLWPRP | 0.0725
RRIRVRPPRLPRPRPRPYYRPRP | -0.309
RRIRLRPPRLPRPRPRPQEAPRP | 0.0514
RRIRERPPRLPRPRPRPYMNPRP | -0.602
RRIRPRPPRLPRPRPRPSVYPRP | -0.361
RRIRPRPPRLPRPRPRPRKYPRP | -0.352
RRIRIRPPRLPRPRPRPPYIPRP | -0.299
RRIRQRPPRLPRPRPRPNNFPRP | -0.17
RRIRRRPPRLPRPRPRPLYAPRP | 0.0633

Sequence | shrunken log2 fold change
RRIRGRPPRLPRPRPRPLRPPRP | 1.47
RRIRARPPRLPRPRPRPFKQPRP | 0.123
RRIRGRPPRLPRPRPRPIQMPRP | -0.027
RRIRTRPPRLPRPRPRPVRCPRP | 0.382
RRIRYRPPRLPRPRPRPWNNPRP | -0.656
RRIRKRPPRLPRPRPRPVNHPRP | -0.0443
RRIRSRPPRLPRPRPRPMGMPRP | -0.366
RRIRDRPPRLPRPRPRPCTKPRP | -0.0891
RRIRERPPRLPRPRPRPMGFPRP | 0.0499
RRIRARPPRLPRPRPRPDVAPRP | 1.35
RRIRSRPPRLPRPRPRPACWPRP | 0.523
RRIRLRPPRLPRPRPRPLMMPRP | -0.164
RRIRVRPPRLPRPRPRPHCLPRP | -1.63
RRIRTRPPRLPRPRPRPFFWPRP | 0.276
RRIRIRPPRLPRPRPRPLMNPRP | -0.94
RRIRKRPPRLPRPRPRPNAVPRP | 0.385
RRIRSRPPRLPRPRPRPTKEPRP | -0.441
RRIRLRPPRLPRPRPRPHKKPRP | -0.163
RRIRGRPPRLPRPRPRPYVNPRP | 0.0862
RRIRTRPPRLPRPRPRPRMFPRP | -0.0163
RRIRTRPPRLPRPRPRPFCWPRP | -0.0403
RRIRRRPPRLPRPRPRPMVEPRP | -0.257
RRIRMRPPRLPRPRPRPWRMPRP | 0.0682
RRIRTRPPRLPRPRPRPPDSPRP | -0.0615
RRIRCRPPRLPRPRPRPWRDPRP | -0.0798

Sequence | shrunken log2 fold change
RRIRRRPPRLPRPRPRPRINPRP | 0.125
RRIRPRPPRLPRPRPRPYHFPRP | -0.245
RRIRMRPPRLPRPRPRPDCRPRP | 0.134
RRIRGRPPRLPRPRPRPPFQPRP | 0.358
RRIRERPPRLPRPRPRPKYFPRP | -0.0979
RRIRFRPPRLPRPRPRPNFMPRP | -0.0155
RRIRYRPPRLPRPRPRPNKAPRP | -0.0417
RRIRDRPPRLPRPRPRPSNTPRP | -0.75
RRIRYRPPRLPRPRPRPCSPPRP | -0.0146
RRIRYRPPRLPRPRPRPGWIPRP | -0.328
RRIRCRPPRLPRPRPRPWVRPRP | -0.0386
RRIRDRPPRLPRPRPRPANEPRP | 0.0557
RRIRRRPPRLPRPRPRPRVMPRP | 0.413
RRIRCRPPRLPRPRPRPPLGPRP | 0.807
RRIRYRPPRLPRPRPRPHSIPRP | -0.311
RRIRKRPPRLPRPRPRPFNVPRP | -0.172
RRIRIRPPRLPRPRPRPGEQPRP | -0.0156
RRIRDRPPRLPRPRPRPFMVPRP | 0.00751
RRIRLRPPRLPRPRPRPAAYPRP | -0.15
RRIRVRPPRLPRPRPRPTPKPRP | 0.297
RRIRYRPPRLPRPRPRPPAYPRP | -0.767
RRIRKRPPRLPRPRPRPLIKPRP | -0.338
RRIRQRPPRLPRPRPRPGQFPRP | 0.121
RRIRQRPPRLPRPRPRPEAMPRP | 0.00408
RRIRSRPPRLPRPRPRPREWPRP | 0.759
